{
  "source": "patent US20120190623",
  "key": {"[1]": {"target": "FVIII mutant M/F 2199/2200 W/W (UniProt P00451)", "sequence (P00451 other isoform, or with tags, fused parts or gaps mutant)": "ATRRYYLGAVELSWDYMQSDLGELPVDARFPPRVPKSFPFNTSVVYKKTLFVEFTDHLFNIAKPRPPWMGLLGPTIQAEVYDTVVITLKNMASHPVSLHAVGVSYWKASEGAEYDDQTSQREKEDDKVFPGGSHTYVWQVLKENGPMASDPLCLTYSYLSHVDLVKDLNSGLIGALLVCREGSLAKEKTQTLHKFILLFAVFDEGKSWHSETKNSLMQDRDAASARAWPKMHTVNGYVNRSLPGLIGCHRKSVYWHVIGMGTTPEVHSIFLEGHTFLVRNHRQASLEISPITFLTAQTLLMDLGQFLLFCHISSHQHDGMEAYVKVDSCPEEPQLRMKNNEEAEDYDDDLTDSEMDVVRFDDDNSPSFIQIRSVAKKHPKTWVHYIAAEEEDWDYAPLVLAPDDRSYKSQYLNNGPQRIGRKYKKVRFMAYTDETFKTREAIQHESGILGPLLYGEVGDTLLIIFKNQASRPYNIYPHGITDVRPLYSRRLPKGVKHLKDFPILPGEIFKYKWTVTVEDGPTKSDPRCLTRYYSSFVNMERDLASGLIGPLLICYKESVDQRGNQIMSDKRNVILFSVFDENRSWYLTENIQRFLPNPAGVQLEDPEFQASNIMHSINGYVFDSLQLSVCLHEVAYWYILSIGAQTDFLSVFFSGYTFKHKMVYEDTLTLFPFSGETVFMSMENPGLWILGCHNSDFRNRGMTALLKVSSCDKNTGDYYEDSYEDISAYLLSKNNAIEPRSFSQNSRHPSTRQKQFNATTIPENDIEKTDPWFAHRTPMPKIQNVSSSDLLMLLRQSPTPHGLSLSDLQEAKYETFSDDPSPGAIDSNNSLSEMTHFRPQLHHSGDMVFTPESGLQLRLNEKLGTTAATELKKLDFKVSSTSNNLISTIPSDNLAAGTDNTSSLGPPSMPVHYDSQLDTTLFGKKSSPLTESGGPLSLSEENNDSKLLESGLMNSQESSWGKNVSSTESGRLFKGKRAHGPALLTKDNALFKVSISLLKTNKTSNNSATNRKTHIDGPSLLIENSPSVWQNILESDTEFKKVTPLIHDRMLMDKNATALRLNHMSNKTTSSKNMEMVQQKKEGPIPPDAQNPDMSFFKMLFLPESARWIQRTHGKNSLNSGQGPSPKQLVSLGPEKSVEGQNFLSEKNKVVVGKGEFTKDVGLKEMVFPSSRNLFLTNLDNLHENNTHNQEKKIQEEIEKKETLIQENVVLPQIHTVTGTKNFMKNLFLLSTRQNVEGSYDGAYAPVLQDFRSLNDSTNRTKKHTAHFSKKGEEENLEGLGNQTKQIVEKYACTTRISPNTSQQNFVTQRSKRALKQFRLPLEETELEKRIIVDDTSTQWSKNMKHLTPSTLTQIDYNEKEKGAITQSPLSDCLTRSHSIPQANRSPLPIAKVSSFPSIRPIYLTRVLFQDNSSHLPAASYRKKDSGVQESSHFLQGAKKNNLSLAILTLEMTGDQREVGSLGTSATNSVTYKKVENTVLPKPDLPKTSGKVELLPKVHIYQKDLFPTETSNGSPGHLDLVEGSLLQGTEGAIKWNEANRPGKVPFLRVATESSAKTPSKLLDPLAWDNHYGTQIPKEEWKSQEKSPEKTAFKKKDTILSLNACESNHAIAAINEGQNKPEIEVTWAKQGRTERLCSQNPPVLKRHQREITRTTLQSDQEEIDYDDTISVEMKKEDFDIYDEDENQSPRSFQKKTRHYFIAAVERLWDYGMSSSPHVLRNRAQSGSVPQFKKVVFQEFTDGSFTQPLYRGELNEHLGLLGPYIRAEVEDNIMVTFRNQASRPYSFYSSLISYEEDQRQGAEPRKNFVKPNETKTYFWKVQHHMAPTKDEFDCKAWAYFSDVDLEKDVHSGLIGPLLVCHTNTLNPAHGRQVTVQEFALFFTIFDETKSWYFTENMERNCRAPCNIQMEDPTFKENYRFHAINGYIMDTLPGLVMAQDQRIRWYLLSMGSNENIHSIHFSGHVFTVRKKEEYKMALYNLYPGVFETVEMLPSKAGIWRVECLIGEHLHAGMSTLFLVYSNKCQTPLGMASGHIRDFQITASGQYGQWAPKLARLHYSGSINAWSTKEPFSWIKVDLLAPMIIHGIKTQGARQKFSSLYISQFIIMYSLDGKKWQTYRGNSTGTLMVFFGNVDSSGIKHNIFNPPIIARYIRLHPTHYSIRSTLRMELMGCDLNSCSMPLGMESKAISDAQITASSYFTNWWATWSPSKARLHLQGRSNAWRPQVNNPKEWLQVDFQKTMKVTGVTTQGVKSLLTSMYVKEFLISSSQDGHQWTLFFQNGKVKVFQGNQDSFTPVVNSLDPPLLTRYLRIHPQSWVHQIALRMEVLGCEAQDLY"}, "[2]": {"target": "FVIII mutant L/L 2251/2252 L/S (L2252S) (UniProt P00451)", "sequence (P00451 20-2351 L2271S)": "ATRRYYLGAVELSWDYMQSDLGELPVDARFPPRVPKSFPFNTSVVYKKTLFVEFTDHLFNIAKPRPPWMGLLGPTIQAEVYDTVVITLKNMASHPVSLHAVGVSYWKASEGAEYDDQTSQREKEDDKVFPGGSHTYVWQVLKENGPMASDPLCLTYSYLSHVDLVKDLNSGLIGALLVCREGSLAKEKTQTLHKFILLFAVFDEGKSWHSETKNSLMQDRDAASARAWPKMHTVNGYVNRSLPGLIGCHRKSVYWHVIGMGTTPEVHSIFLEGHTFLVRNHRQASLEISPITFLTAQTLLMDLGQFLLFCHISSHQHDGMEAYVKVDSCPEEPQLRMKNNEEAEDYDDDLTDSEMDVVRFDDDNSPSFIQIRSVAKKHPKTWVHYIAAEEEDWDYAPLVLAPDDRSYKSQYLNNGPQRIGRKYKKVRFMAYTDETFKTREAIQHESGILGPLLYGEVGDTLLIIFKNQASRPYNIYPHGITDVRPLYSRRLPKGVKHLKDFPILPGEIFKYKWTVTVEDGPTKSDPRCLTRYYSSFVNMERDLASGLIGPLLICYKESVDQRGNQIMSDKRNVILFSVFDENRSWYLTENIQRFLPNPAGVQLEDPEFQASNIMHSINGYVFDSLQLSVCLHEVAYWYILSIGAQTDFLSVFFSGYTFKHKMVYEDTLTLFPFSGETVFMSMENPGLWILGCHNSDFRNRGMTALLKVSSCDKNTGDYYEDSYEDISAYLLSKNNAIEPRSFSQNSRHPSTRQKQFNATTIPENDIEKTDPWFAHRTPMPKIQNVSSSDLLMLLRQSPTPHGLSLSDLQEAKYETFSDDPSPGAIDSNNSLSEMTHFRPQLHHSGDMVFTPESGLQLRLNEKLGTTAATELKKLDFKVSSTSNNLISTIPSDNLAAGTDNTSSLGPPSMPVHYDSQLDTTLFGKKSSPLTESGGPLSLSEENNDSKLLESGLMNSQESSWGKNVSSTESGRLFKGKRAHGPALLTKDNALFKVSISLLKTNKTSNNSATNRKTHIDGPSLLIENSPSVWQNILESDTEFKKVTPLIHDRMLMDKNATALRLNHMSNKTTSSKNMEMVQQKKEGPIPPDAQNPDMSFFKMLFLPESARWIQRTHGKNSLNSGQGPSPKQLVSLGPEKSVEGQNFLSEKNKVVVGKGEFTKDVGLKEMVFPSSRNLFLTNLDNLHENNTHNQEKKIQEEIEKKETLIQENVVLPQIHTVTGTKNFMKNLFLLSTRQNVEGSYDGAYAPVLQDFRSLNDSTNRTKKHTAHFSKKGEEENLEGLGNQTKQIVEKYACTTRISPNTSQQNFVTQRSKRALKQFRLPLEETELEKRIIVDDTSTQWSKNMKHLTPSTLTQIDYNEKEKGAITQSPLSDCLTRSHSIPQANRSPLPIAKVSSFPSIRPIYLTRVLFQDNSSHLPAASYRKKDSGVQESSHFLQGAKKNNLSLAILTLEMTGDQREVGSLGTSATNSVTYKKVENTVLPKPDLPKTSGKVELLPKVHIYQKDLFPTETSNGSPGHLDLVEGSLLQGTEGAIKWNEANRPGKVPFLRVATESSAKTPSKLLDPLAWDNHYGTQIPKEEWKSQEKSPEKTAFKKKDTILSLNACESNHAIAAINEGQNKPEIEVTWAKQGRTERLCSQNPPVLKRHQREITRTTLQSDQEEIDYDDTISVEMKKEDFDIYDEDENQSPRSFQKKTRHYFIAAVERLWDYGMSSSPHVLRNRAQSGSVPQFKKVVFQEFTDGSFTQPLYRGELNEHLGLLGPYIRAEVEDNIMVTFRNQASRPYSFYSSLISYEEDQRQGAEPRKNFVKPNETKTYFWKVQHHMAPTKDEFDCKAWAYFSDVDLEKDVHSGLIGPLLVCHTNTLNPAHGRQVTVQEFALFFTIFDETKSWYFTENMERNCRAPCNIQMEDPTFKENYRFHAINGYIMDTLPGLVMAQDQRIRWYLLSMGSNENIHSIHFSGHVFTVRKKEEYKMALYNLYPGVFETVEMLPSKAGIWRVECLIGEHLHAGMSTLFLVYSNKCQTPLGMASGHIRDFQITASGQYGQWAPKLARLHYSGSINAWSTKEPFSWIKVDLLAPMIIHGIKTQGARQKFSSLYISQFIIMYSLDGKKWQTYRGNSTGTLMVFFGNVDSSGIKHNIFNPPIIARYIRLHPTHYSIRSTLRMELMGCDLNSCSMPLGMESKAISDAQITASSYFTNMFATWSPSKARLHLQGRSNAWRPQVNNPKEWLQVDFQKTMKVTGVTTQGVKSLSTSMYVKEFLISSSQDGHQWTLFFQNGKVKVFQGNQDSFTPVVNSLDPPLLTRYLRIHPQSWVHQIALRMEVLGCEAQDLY"}, "[3]": {"target": "FVIII mutant M/F/L 2199/2200/2252 W/W/S (UniProt P00451)", "sequence (P00451 other isoform, or with tags, fused parts or gaps mutant)": "as the sequence (P00451 20-2351 L2271S) above, with M2199W, F2200W counted along it"}},
  "data": [
    {"substance": "factor IXa", "values": [
      {"measurement": "apparent affinity for factor IXa, Xase assay with 15% PS vesicles", "setting": "[1]", "result": "the apparent affinity for factor IXa was reduced 5-fold"},
      {"measurement": "apparent affinity of factor IXa, Xase assay with saturating PL, 1000 µM", "setting": "[1]", "result": "the apparent affinity of factor IXa for the mutants was decreased approximately 4-fold for the three mutants"},
      {"measurement": "apparent affinity for factor IXa, Xase assay with 15% PS vesicles", "setting": "[2]", "result": "the apparent affinity for factor IXa was reduced 5-fold"},
      {"measurement": "apparent affinity of factor IXa, Xase assay with saturating PL, 1000 µM", "setting": "[2]", "result": "the apparent affinity of factor IXa for the mutants was decreased approximately 4-fold for the three mutants"},
      {"measurement": "apparent affinity for factor IXa, Xase assay with 15% PS vesicles", "setting": "[3]", "result": "the apparent affinity for factor IXa was reduced 5-fold"},
      {"measurement": "apparent affinity of factor IXa, Xase assay with saturating PL, 1000 µM", "setting": "[3]", "result": "the apparent affinity of factor IXa for the mutants was decreased approximately 4-fold for the three mutants"}
    ]}
  ]
}
